Data: patent US20200255504A1 (VIB VZW, published 2020)
Values joined by “and” are separate entries in the source; they are usually repeats but may differ in a detail not shown here. Equal entries are not always repeated.

Columns and labels:
human serum albumin [1] = biological target: T1, human serum albumin (human, UniProt P02768 25-609); test: affinity determination, method not stated
T1 construct: also called HSA; human albumin

bovine serum albumin = biological target: T2, bovine serum albumin (bovine, UniProt P02769 25-607); test: BLI Octet RED96, albumin on AR2G sensors
T2 construct: also called bovine albumin

cat serum albumin = biological target: T3, cat serum albumin (cat, UniProt P49064 25-608); test: BLI Octet RED96, albumin on AR2G sensors
T3 construct: also called cat SA
Description: (§1) 10 mg of lyophilized cat, dog, horse or pig serum (HSA) albumin (Sigma) was resuspended in 1 mL of PBS (10 μg/μL). This was used at 20 μg/mL in the “Ligand scouting immobilization conditions” protocol for AR2G Biosensors as detailed in Fortebio Technical Note 26, in conjunction with a Fortebio Octet Red96 machine. Only the pH 5.0 and pH 4.0 condition were tested.
(§2) After data acquisition, the profiles were analyzed using the Octet Data analysis software v9.0.

pig serum albumin = biological target: T4, pig serum albumin (pig, UniProt P08835 25-607); test: BLI Octet RED96, albumin on AR2G sensors
T4 construct: also called pig SA
Description: as §1, §2

rat serum albumin [2] = biological target: T5, rat serum albumin (rat, UniProt P02770 25-608); test: BLI Octet RED96, rat albumin, reference SA1_S30K
T5 construct: also called rat albumin

mouse serum albumin [3] = biological target: T6, mouse serum albumin (mouse, UniProt P07724 25-608); test: BLI Octet RED96, mouse albumin, reference SA1_S30K
T6 construct: also called mouse albumin

human serum albumin [4] = biological target: T1, human serum albumin; test: BLI Octet RED96, HSA on AR2G sensors, VHH 100-1.5 nM
human serum albumin [5] = biological target: T1, human serum albumin; test: BLI Octet RED96, albumin on AR2G sensors, VHH 100-1.5 nM
mouse serum albumin [6] = biological target: T6, mouse serum albumin; test: as above
rat serum albumin [7] = biological target: T5, rat serum albumin; test: as above
[8] = biological target: T7, cynomolgus monkey serum albumin (cynomolgus monkey); test: as above
T7 construct: also called cyno albumin

rabbit serum albumin = biological target: T8, rabbit serum albumin (rabbit, UniProt P49065 25-608); test: BLI Octet RED96, albumin on AR2G sensors, VHH 1600-25 nM
T8 construct: also called rabbit albumin

horse serum albumin = biological target: T9, horse serum albumin (horse, UniProt P35747 25-607); test: BLI Octet RED96, albumin on AR2G sensors, VHH 800-12.5 nM, 1:1 model
T9 construct: also called horse SA; horse albumin
Description: as §1, §2

dog serum albumin = biological target: T10, dog serum albumin (dog, UniProt P49822 25-608); test: as above
T10 construct: also called dog SA; dog albumin
Description: as §1, §2

human serum albumin [9] = biological target: T1, human serum albumin; test: BLI off-rate screen, periplasmic extract 1/4 in PBS, HSA on AR2G sensors
Description: (§3) Off-rate was analyzed by BioLayer Interferometry on an Octet RED96 (Fortebio) instrument using human serum albumin (HSA) coated Octet AR2G sensors (HSA was coupled at 20 μg/mL at pH 5.0 as detailed in Fortebio Technical Note 26).

human serum albumin [10] = biological target: T1, human serum albumin; test: BLI off-rate screen, periplasmic extract 1/4 in 75 mM NaAc pH 5.5, HSA on AR2G sensors
Description: as §3

human serum albumin [11] = biological target: T1, human serum albumin; test: BLI Octet RED96, HSA on AR2G sensors, VHH 100-1.5 nM (column head says nM; values look like M)
human serum albumin [12] = biological target: T1, human serum albumin; test: BLI Octet RED96, albumin on AR2G sensors (as in Example 4)
[13] = biological target: T7, cynomolgus monkey serum albumin; test: as above
human serum albumin [14] = biological target: T1, human serum albumin; test: BLI Octet RED96, HSA on AR2G sensors

B1: VHH-GFP-SA1_S30K (bispecific antibody)
chain: QVQLQESGGALVQPGGSLRLSCAASGFPVNRYSMRWYRQAPGKEREWVAGMSSAGDRSSYEDSVKGRFTISRDDARNTVYLQMNSLKPEDTAVYYCNVNVGFEYWGQGTQVTVSSGGSGGSGGSGGSGGSGGSGGSGGSGGSGGSGGSGGSGGSGGSGGSGGSGGSGGSGGSGGSQVQLQESGGGLVQAGGSLRLSCAASGRNIKEYVMGWFRQAPGKEREFVAAISWSAGNIYYADSVKGRFTISRDNAKNTVHLQMNTLRPEDTAVYYCAAGRYSAWYVAAYEYDYWGQGTQVTVSS
notes: also called VHH-GFP-SA26
For B1, which Kd (human serum albumin [1]) is on record?
The Kd was 5 nM.

B2: SA1 VHH (VHH)
VHH: QVQLQESGGGLVQAGGSLRLSCAASGRNISEYVMGWFRQAPGKEREFVAAISWSAGNIYYADSVKGRFTISRDNAKNTVHLQMNTLRPEDTAVYYCAAGRYSAWYVAAYEYDYWGQGTQVTVSS
notes: From WO2014/037419; made in E. coli WK6 periplasm; also called non-mutated SA1; original SA1 VHH
What does the source list for B2?
binding result (bovine serum albumin): no binding; binding result (cat serum albumin): no binding (tested: 800 nM (highest concentration)); binding result (pig serum albumin): no binding (tested: 800 nM (highest concentration)); fold lower affinity than SA1_S30K (rat serum albumin [2]): 20 fold; fold lower affinity than SA1_S30K (mouse serum albumin [3]): 2 fold; koff (human serum albumin [4]): 0.00022 s⁻¹; Kd (human serum albumin [5]): 0.9 nM; Kd (mouse serum albumin [6]): 0.66 nM; Kd (rat serum albumin [7]): 0.45 nM; Kd [8]: 0.37 nM; Kd (rabbit serum albumin): 600 nM; Kd (horse serum albumin): 121 nM; koff (horse serum albumin): 0.00483 s⁻¹; kon (horse serum albumin): 52100 M⁻¹ s⁻¹; Kd (dog serum albumin): 126 nM; koff (dog serum albumin): 0.0158 s⁻¹; kon (dog serum albumin): 123000 M⁻¹ s⁻¹; koff (human serum albumin [9]): 0.00222 s⁻¹ and 0.00199 s⁻¹; koff (human serum albumin [10]): 0.000972 s⁻¹ and 0.00119 s⁻¹; Kd (human serum albumin [11]): 1.15 nM

B3: SA1-biotinylated (VHH)
VHH: QVQLQESGGGLVQAGGSLRLSCAASGRNISEYVMGWFRQAPGKEREFVAAISWSAGNIYYADSVKGRFTISRDNAKNTVHLQMNTLRPEDTAVYYCAAGRYSAWYVAAYEYDYWGQGTQVTVSS
modifications: labeled with NHS-PEG4-Biotin at a 5/1 molar ratio of biotin/VHH; labelled residues not determined
notes: also called biotinylated SA1
For B3, which koff (human serum albumin [4]) is on record?
Its koff is 0.000166 s⁻¹.

And the Kd (human serum albumin [11])?
The Kd was 1.97 nM.

B4: SA1_S30K humanized variant 4 VHH (VHH)
VHH: EVQLQESGGGLVQPGGSLRLSCAASGRNIKEYVMGWFRQAPGKEREFVAAISWSAGNIYYADSVKGRFTISRDNSKNTVYLQMNSLRPEDTAVYYCAAGRYSAWYVAAYEYDYWGQGTLVTVSS
notes: also called h4
For B4, which Kd (human serum albumin [12]) is on record?
Its Kd is 2.11 nM.

What about the Kd [13] of the same binder?
Its Kd is 0.32 nM.

B5: SA1_S30K VHH (VHH)
VHH: QVQLQESGGGLVQAGGSLRLSCAASGRNIKEYVMGWFRQAPGKEREFVAAISWSAGNIYYADSVKGRFTISRDNAKNTVHLQMNTLRPEDTAVYYCAAGRYSAWYVAAYEYDYWGQGTQVTVSS
notes: Made in E. coli WK6 periplasm; also called SA1_S3OK; SA1_S30K mutant variant
Does B5 bind (bovine serum albumin)?
Result: no binding

Does B5 bind (cat serum albumin)?
Result: no binding (tested: 800 nM (highest concentration))

Does B5 bind (pig serum albumin)?
Result: no binding (tested: 800 nM (highest concentration))

And the koff (human serum albumin [4])?
Its koff is 0.000203 s⁻¹.

What about the Kd (human serum albumin [5]) of the same binder?
The Kd was 0.91 nM.

What about the Kd (mouse serum albumin [6]) of the same binder?
Its Kd is 0.29 nM.

And the Kd (rat serum albumin [7])?
The Kd was 0.02 nM.

What about the Kd [8] of the same binder?
The Kd was 0.38 nM.

What about the Kd (human serum albumin [12]) of the same binder?
The Kd was 1.28 nM.

And the Kd [13]?
Its Kd is 0.57 nM.

And the Kd (horse serum albumin)?
The Kd was 201 nM.

And the koff (horse serum albumin)?
The koff was 0.0103 s⁻¹.

And the kon (horse serum albumin)?
The kon was 59100 M⁻¹ s⁻¹.

And the Kd (dog serum albumin)?
Its Kd is 160 nM.

What about the koff (dog serum albumin) of the same binder?
Its koff is 0.0181 s⁻¹.

What about the kon (dog serum albumin) of the same binder?
The kon was 166000 M⁻¹ s⁻¹.

What about the Response (human serum albumin [9]) of the same binder?
The Response was 0.25 nm.

What about the koff (human serum albumin [9]) of the same binder?
The koff was 0.00141 s⁻¹.

And the Response (human serum albumin [10])?
The Response was 0.438 nm.

And the koff (human serum albumin [10])?
The koff was 0.00181 s⁻¹.

What about the Kd (human serum albumin [11]) of the same binder?
The Kd was 0.825 nM.

B6: SA1_S30K humanized variant 3 VHH (VHH)
VHH: EVQLQESGGGLVQPGGSLRLSCAASGRNIKEYVMGWFRQAPGKEREFVAAISWSAGNIYYADSVKGRFTISRDNSKNTVHLQMNSLRPEDTAVYYCAAGRYSAWYVAAYEYDYWGQGTLVTVSS
notes: also called h3
How did the Kd (human serum albumin [12]) turn out when B6 was run?
The Kd was 1.64 nM.

And the Kd [13]?
Its Kd is 0.29 nM.

B7: SA1_S30K humanized variant 2 VHH (VHH)
VHH: EVQLQESGGGLVQPGGSLRLSCAASGRNIKEYVMGWFRQAPGKEREFVAAISWSAGNIYYADSVKGRFTISRDNSKNTVYLQMNTLRPEDTAVYYCAAGRYSAWYVAAYEYDYWGQGTLVTVSS
notes: also called h2
For B7, which Kd (human serum albumin [12]) is on record?
The Kd was 1.53 nM.

And the Kd [13]?
The Kd was 0.5 nM.

B8: SA1_S30K-biotinylated (VHH)
VHH: QVQLQESGGGLVQAGGSLRLSCAASGRNIKEYVMGWFRQAPGKEREFVAAISWSAGNIYYADSVKGRFTISRDNAKNTVHLQMNTLRPEDTAVYYCAAGRYSAWYVAAYEYDYWGQGTQVTVSS
modifications: labeled with NHS-PEG4-Biotin at a 5/1 molar ratio of biotin/VHH; the filing says the higher signal is likely related to the additional lysine at position 30; labelled residues not determined
notes: also called biotinylated SA1_S30K VHH
Which “fold change in KD or kon or koff against the unbiotinylated VHH” value (human serum albumin [14]) does the source give for B8 here?
Its value is < 2 fold.

And the koff (human serum albumin [4])?
The koff was 0.000187 s⁻¹.

What about the Kd (human serum albumin [11]) of the same binder?
Its Kd is 1.49 nM.

B9: SA1_S30K humanized variant 1 VHH (VHH)
VHH: EVQLQESGGGLVQPGGSLRLSCAASGRNIKEYVMGWFRQAPGKEREFVAAISWSAGNIYYADSVKGRFTISRDNSKNTVHLQMNTLRPEDTAVYYCAAGRYSAWYVAAYEYDYWGQGTLVTVSS
notes: also called h1
B9 was tested. Which Kd (human serum albumin [12]) did it give?
Its Kd is 1.33 nM.

What about the Kd [13] of the same binder?
Its Kd is 0.36 nM.
